Measured values: IntAct's records for PubMed 11042109

B1: NEDD4 family-interacting protein 1 (Mus musculus), Q8R0W6 (parent)
chain: MALALAALAAVEPACGSGYQQLQNEEEPGEPEQTAGDAPPPYSSITAESAAYFDYKDESGFPKPPSYNVATTLPSYDEAERTKTEATIPLVPGRDEDFVGRDDFDDTDQLRIGNDGIFMLTFFMAFLFNWIGFFLSFCLTTSAAGRYGAISGFGLSLIKWILIVRFSTYFPGYFDGQYWLWWVFLVLGFLLFLRGFINYAKVRKMPETFSNLPRTRVLFIY
B2: Protein TMEPAI (Mus musculus), Q9D7R2 (parent)
chain: MSPARATAQRSLFPSMEITELEFVQIVVIVVVMMVMVVMITCLLSHYKLSARSFISRHSQARRRDDGLSSEGCLWPSESTVSGGMPEPQVYAPPRPTDRLAVPPFIQRSRFQPTYPYLQHEIALPPTISLSDGEEPPPYQGPCTLQLRDPEQQLELNRESVRAPPNRTIFDSDLIDSTMLGGPCPPSSNSGISATCYSSGGRMEGPPPTYSEVIGHYPGSSFQHQQSNGPSSLLEGTRLHHSHIAPLENKEKEKQKGHPL
B3: WW domain-binding protein 2 (Mus musculus), P97765 (parent)
chain: MALNKNHSEGGGVIVNNTESILMSYDHVELTFNDMKNVPEAFKGTKKGTVYLTPYRVIFLSKGKDAMQSFMMPFYLMKDCEIKQPVFGANFIKGIVKAEAGGGWEGSASYKLTFTAGGAIEFGQRMLQVASQASRGEVPNGAYGYPYMPSGAYVFPPPVANGMYPCPPGYPYPPPPPEFYPGPPMMDGAMGYVQPPPPPYPGPMEPPVSGPSAPATPAAEAKAAEAAASAYYNPGNPHNVYMPTSQPPPPPYYPPEDKKTQ
B4: Lipopolysaccharide-induced tumor necrosis factor-alpha factor homolog (Mus musculus), Q9JLJ0 (parent)
chain: MSAPGPYQAAAGPSVVPTAPPTYEETVGVNSYYPTPPAPMPGPATGLITGPDGKGMNPPSYYTQPVPVPNANAIAVQTVYVQQPVSFYDRPVQMCCPSCSKMIVTQLSYNAGALTWLSCGSLCLLGCVAGCCFIPFCVDALQDVDHYCPNCKALLGTYKRL
B5: WW domain-binding protein 1 (Mus musculus), P97764 (parent)
chain: MARASSRNSSEEAWGSLQAPQQQQSPAASSLEGAIWRRAGTQTRALDTILYHPQQSHLLRELCPGVNTQPYLCETGHCCGETGCCTYYYELWWFWLLWTVLILFSCCCAFRHRRAKLRLQQQQRQREINLLAYHGACHGAGPVPTGSLLDLRLLSAFKPPAYEDVVHHPGTPPPPYTVGPGYPWTTSSECTRCSSESSCSAHLEGTNVEGVSSQQSALPHQEGEPRAGLSPVHIPPSCRYRRLTGDSGIELCPCPDSSEGEPLKEARASASQPDLEDHSPCALPPDSVSQVPPMGLASSCGDIP
B6: RING finger protein 11 (Mus musculus), Q9QYK7 (parent)
chain: MGNCLKSPTSDDISLLHESQSDRASFGEGTEPDQEPPPPYQEQVPVPIYHPTPSQTRLATQLTEEEQIRIAQRIGLIQHLPKGVYDPGRDGSEKKIRECVICMMDFVYGDPIRFLPCMHIYHLDCIDDWLMRSFTCPSCMEPVDAALLSSYETN
B7: Protein BEAN1 (Mus musculus), Q9EQG5 (parent)
chain: MSFKRPCPLARYNRTSYFYPTTFSESSEHSHLLVSPVLVASAVIGVVITLSCITIIVGSIRRDRQARIQRHHHRHRRHHHHHRHRRRRHREYASGGHTHSRSSPRMPYACSPAEDWPPPLDVSSEGDVDVTVLWELYPDSPPGYEECMGPGATQLYVPTDAPPPYSMTDSCPRLNGALDSDSGQSRSHRQQEQRTQGQSRLHTVSMDTLPPYEAVCGTGSPSDLLPLPGPEPWPSNSQGSPIPTQAPMPSPERIV

Variants of: B1
Conditions: with nedd4_mouse Nedd4, P46935
Target sequence in this assay (P46935 whole entry): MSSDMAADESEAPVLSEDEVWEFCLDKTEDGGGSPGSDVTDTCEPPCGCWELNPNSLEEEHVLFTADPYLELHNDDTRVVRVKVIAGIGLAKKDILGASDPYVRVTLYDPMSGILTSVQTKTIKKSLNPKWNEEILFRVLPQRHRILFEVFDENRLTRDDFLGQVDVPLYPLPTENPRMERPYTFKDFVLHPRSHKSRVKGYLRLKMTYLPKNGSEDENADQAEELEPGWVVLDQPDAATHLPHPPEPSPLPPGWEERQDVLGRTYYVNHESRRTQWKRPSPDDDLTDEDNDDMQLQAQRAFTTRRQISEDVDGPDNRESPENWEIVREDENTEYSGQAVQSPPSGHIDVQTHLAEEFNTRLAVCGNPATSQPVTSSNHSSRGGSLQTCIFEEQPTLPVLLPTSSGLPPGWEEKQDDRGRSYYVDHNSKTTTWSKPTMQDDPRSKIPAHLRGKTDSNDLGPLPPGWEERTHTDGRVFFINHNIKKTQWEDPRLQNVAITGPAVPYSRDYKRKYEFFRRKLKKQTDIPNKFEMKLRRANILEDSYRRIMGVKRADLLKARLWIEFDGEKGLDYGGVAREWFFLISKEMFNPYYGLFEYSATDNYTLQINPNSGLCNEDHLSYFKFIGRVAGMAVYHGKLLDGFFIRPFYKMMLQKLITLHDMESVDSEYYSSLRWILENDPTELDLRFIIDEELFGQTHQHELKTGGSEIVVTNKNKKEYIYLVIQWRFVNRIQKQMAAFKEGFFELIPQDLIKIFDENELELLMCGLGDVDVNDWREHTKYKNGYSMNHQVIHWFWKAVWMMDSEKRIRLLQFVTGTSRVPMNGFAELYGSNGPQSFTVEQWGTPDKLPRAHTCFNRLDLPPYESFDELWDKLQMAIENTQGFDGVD
In the case of MALALAALAAVEPACGSGYQQLQNEEEPGEPEQTAGDAPPPASSITAESAAYFDYKDESGFPKPPSYNVATTLPSYDEAERTKTEATIPLVPGRDEDFVGRDDFDDTDQLRIGNDGIFMLTFFMAFLFNWIGFFLSFCLTTSAAGRYGAISGFGLSLIKWILIVRFSTYFPGYFDGQYWLWWVFLVLGFLLFLRGFINYAKVRKMPETFSNLPRTRVLFIY [Y42A], the “effect of a mutation on the interaction” value is reported as “decreasing interaction strength”.

Variants of: B2
Conditions: with nedd4_mouse Nedd4, P46935
Target sequence in this assay (P46935 whole entry): as the sequence (P46935 whole entry) above
For MSPARATAQRSLFPSMEITELEFVQIVVIVVVMMVMVVMITCLLSHYKLSARSFISRHSQARRRDDGLSSEGCLWPSESTVSGGMPEPQVYAPPRPTDRLAVPPFIQRSRFQPTYPYLQHEIALPPTISLSDGEEPPPYQGPCTLQLRDPEQQLELNRESVRAPPNRTIFDSDLIDSTMLGGPCPPSSNSGISATCYSSGGRMEGPPPTASEVIGHYPGSSFQHQQSNGPSSLLEGTRLHHSHIAPLENKEKEKQKGHPL [Y210A], the “effect of a mutation on the interaction” value was “disrupting interaction strength”.

Variants of: B2
Conditions: with nedd4_mouse Nedd4, P46935
Remark: another data set of the same source
Target sequence in this assay (P46935 whole entry): as the sequence (P46935 whole entry) above
In the case of MSPARATAQRSLFPSMEITELEFVQIVVIVVVMMVMVVMITCLLSHYKLSARSFISRHSQARRRDDGLSSEGCLWPSESTVSGGMPEPQVYAPPRPTDRLAVPPFIQRSRFQPTYPYLQHEIALPPTISLSDGEEPPPYQGPCTLQLRDPEQQLELNRESVRAPPNRTIFDSDLIDSTMLGGPCPPSSNSGISATCYSSGGRMEGPPPTASEVIGHYPGSSFQHQQSNGPSSLLEGTRLHHSHIAPLENKEKEKQKGHPL [Y210A], the “effect of a mutation on the interaction” value is reported as “disrupting interaction strength”.

Variants of: B2
Conditions: with nedd4_mouse Nedd4, P46935
Remark: another data set of the same source
Target sequence in this assay (P46935 whole entry): as the sequence (P46935 whole entry) above
With MSPARATAQRSLFPSMEITELEFVQIVVIVVVMMVMVVMITCLLSHYKLSARSFISRHSQARRRDDGLSSEGCLWPSESTVSGGMPEPQVYAPPRPTDRLAVPPFIQRSRFQPTYPYLQHEIALPPTISLSDGEEPPPAQGPCTLQLRDPEQQLELNRESVRAPPNRTIFDSDLIDSTMLGGPCPPSSNSGISATCYSSGGRMEGPPPTYSEVIGHYPGSSFQHQQSNGPSSLLEGTRLHHSHIAPLENKEKEKQKGHPL [Y139A] the “effect of a mutation on the interaction” value was “decreasing interaction strength”.

Variants of: B3
Conditions: with nedd4_mouse Nedd4, P46935
Target sequence in this assay (P46935 whole entry): as the sequence (P46935 whole entry) above
For MALNKNHSEGGGVIVNNTESILMSYDHVELTFNDMKNVPEAFKGTKKGTVYLTPYRVIFLSKGKDAMQSFMMPFYLMKDCEIKQPVFGANFIKGIVKAEAGGGWEGSASYKLTFTAGGAIEFGQRMLQVASQASRGEVPNGAYGYPYMPSGAYVFPPPVANGMYPCPPGYPYPPPPPEFYPGPPMMDGAMGYVQPPPPPYPGPMEPPVSGPSAPATPAAEAKAAEAAASAYYNPGNPHNVYMPTSQPPPPPAYPPEDKKTQ [Y252A], the “effect of a mutation on the interaction” value was “decreasing interaction strength”.

Variants of: B3
Conditions: with nedd4_mouse Nedd4, P46935
Remark: another data set of the same source
Target sequence in this assay (P46935 whole entry): as the sequence (P46935 whole entry) above
With MALNKNHSEGGGVIVNNTESILMSYDHVELTFNDMKNVPEAFKGTKKGTVYLTPYRVIFLSKGKDAMQSFMMPFYLMKDCEIKQPVFGANFIKGIVKAEAGGGWEGSASYKLTFTAGGAIEFGQRMLQVASQASRGEVPNGAYGYPYMPSGAYVFPPPVANGMYPCPPGYPYPPPPPEFYPGPPMMDGAMGYVQPPPPPAPGPMEPPVSGPSAPATPAAEAKAAEAAASAYYNPGNPHNVYMPTSQPPPPPYYPPEDKKTQ [Y200A] the “effect of a mutation on the interaction” value was “decreasing interaction strength”.

Variants of: B3
Conditions: with nedd4_mouse Nedd4, P46935
Remark: another data set of the same source
With MALNKNHSEGGGVIVNNTESILMSYDHVELTFNDMKNVPEAFKGTKKGTVYLTPYRVIFLSKGKDAMQSFMMPFYLMKDCEIKQPVFGANFIKGIVKAEAGGGWEGSASYKLTFTAGGAIEFGQRMLQVASQASRGEVPNGAYGYPYMPSGAYVFPPPVANGMYPCPPGYPYPPPPPEFYPGPPMMDGAMGYVQPPPPPAPGPMEPPVSGPSAPATPAAEAKAAEAAASAYYNPGNPHNVYMPTSQPPPPPYYPPEDKKTQ [Y200A] the “effect of a mutation on the interaction” value was “decreasing interaction strength”.

Variants of: B3
Conditions: with nedd4_mouse Nedd4, P46935
Remark: another data set of the same source
In the case of MALNKNHSEGGGVIVNNTESILMSYDHVELTFNDMKNVPEAFKGTKKGTVYLTPYRVIFLSKGKDAMQSFMMPFYLMKDCEIKQPVFGANFIKGIVKAEAGGGWEGSASYKLTFTAGGAIEFGQRMLQVASQASRGEVPNGAYGYPYMPSGAYVFPPPVANGMYPCPPGYPYPPPPPEFYPGPPMMDGAMGYVQPPPPPAPGPMEPPVSGPSAPATPAAEAKAAEAAASAYYNPGNPHNVYMPTSQPPPPPYYPPEDKKTQ [Y200A], the “effect of a mutation on the interaction” value is reported as “disrupting interaction strength”.

Variants of: B4
Conditions: with nedd4_mouse Nedd4, P46935
Y23A was tested, and the “effect of a mutation on the interaction” value was “disrupting interaction strength”.

Variants of: B5
Conditions: with nedd4_mouse Nedd4, P46935
MARASSRNSSEEAWGSLQAPQQQQSPAASSLEGAIWRRAGTQTRALDTILYHPQQSHLLRELCPGVNTQPYLCETGHCCGETGCCTYYYELWWFWLLWTVLILFSCCCAFRHRRAKLRLQQQQRQREINLLAYHGACHGAGPVPTGSLLDLRLLSAFKPPAYEDVVHHPGTPPPPATVGPGYPWTTSSECTRCSSESSCSAHLEGTNVEGVSSQQSALPHQEGEPRAGLSPVHIPPSCRYRRLTGDSGIELCPCPDSSEGEPLKEARASASQPDLEDHSPCALPPDSVSQVPPMGLASSCGDIP [Y176A] was tested, and the “effect of a mutation on the interaction” value was “disrupting interaction strength”.

Variants of: B5
Conditions: with nedd4_mouse Nedd4, P46935
Remark: another data set of the same source
For MARASSRNSSEEAWGSLQAPQQQQSPAASSLEGAIWRRAGTQTRALDTILYHPQQSHLLRELCPGVNTQPYLCETGHCCGETGCCTYYYELWWFWLLWTVLILFSCCCAFRHRRAKLRLQQQQRQREINLLAYHGACHGAGPVPTGSLLDLRLLSAFKPPAAEDVVHHPGTPPPPYTVGPGYPWTTSSECTRCSSESSCSAHLEGTNVEGVSSQQSALPHQEGEPRAGLSPVHIPPSCRYRRLTGDSGIELCPCPDSSEGEPLKEARASASQPDLEDHSPCALPPDSVSQVPPMGLASSCGDIP [Y162A], the “effect of a mutation on the interaction” value was “disrupting interaction strength”.

Variants of: B6
Conditions: with nedd4_mouse Nedd4, P46935
For MGNCLKSPTSDDISLLHESQSDRASFGEGTEPDQEPPPPAQEQVPVPIYHPTPSQTRLATQLTEEEQIRIAQRIGLIQHLPKGVYDPGRDGSEKKIRECVICMMDFVYGDPIRFLPCMHIYHLDCIDDWLMRSFTCPSCMEPVDAALLSSYETN [Y40A], the “effect of a mutation on the interaction” value was “disrupting interaction”.

Variants of: B6
Conditions: with nedd4_mouse Nedd4, P46935
Remark: another data set of the same source
For MGNCLKSPTSDDISLLHESQSDRASFGEGTEPDQEPPPPAQEQVPVPIYHPTPSQTRLATQLTEEEQIRIAQRIGLIQHLPKGVYDPGRDGSEKKIRECVICMMDFVYGDPIRFLPCMHIYHLDCIDDWLMRSFTCPSCMEPVDAALLSSYETN [Y40A], the “effect of a mutation on the interaction” value was “disrupting interaction strength”.

Variants of: B7
Conditions: with nedd4_mouse Nedd4, P46935
For MSFKRPCPLARYNRTSYFYPTTFSESSEHSHLLVSPVLVASAVIGVVITLSCITIIVGSIRRDRQARIQRHHHRHRRHHHHHRHRRRRHREYASGGHTHSRSSPRMPYACSPAEDWPPPLDVSSEGDVDVTVLWELYPDSPPGYEECMGPGATQLYVPTDAPPPASMTDSCPRLNGALDSDSGQSRSHRQQEQRTQGQSRLHTVSMDTLPPYEAVCGTGSPSDLLPLPGPEPWPSNSQGSPIPTQAPMPSPERIV [Y165A], the “effect of a mutation on the interaction” value was “disrupting interaction strength”. In the case of MSFKRPCPLARYNRTSYFYPTTFSESSEHSHLLVSPVLVASAVIGVVITLSCITIIVGSIRRDRQARIQRHHHRHRRHHHHHRHRRRRHREYASGGHTHSRSSPRMPYACSPAEDWPPPLDVSSEGDVDVTVLWELYPDSPPGAEECMGPGATQLYVPTDAPPPYSMTDSCPRLNGALDSDSGQSRSHRQQEQRTQGQSRLHTVSMDTLPPYEAVCGTGSPSDLLPLPGPEPWPSNSQGSPIPTQAPMPSPERIV [Y144A], the “effect of a mutation on the interaction” value is reported as “disrupting interaction strength”. With MSFKRPCPLARYNRTSYFYPTTFSESSEHSHLLVSPVLVASAVIGVVITLSCITIIVGSIRRDRQARIQRHHHRHRRHHHHHRHRRRRHREYASGGHTHSRSSPRMPYACSPAEDWPPPLDVSSEGDVDVTVLWELYPDSPPGAEECMGPGATQLYVPTDAPPPASMTDSCPRLNGALDSDSGQSRSHRQQEQRTQGQSRLHTVSMDTLPPYEAVCGTGSPSDLLPLPGPEPWPSNSQGSPIPTQAPMPSPERIV [Y144A;Y165A] the “effect of a mutation on the interaction” value was “disrupting interaction strength”.

Variants of: B7
Conditions: with nedd4_mouse Nedd4, P46935
Remark: another data set of the same source
For MSFKRPCPLARYNRTSYFYPTTFSESSEHSHLLVSPVLVASAVIGVVITLSCITIIVGSIRRDRQARIQRHHHRHRRHHHHHRHRRRRHREYASGGHTHSRSSPRMPYACSPAEDWPPPLDVSSEGDVDVTVLWELYPDSPPGAEECMGPGATQLYVPTDAPPPASMTDSCPRLNGALDSDSGQSRSHRQQEQRTQGQSRLHTVSMDTLPPYEAVCGTGSPSDLLPLPGPEPWPSNSQGSPIPTQAPMPSPERIV [Y144A;Y165A], the “effect of a mutation on the interaction” value was “disrupting interaction strength”.
